# Laboratory results taken from patent US20170226155A1.
# Tests used:
# [1] = target: Dipeptidyl amino peptidase type IV (DPP IV); assay: cell-based or functional assay
# [2] = target: -; assay: enzyme inhibition (fluorescence); pH 7.6, -DPIV
# [3] = target: -; assay: enzyme inhibition (fluorescence); pH 2, -DPIV
# [4] = target: -; assay: enzyme inhibition (fluorescence); pH 7.6, +DPIV
# [5] = target: -; assay: enzyme inhibition (fluorescence); pH 2, +DPIV
# [6] = target: DP IV; assay: enzyme inhibition (A410); pH 2, 10 minutes
# [7] = target: DP IV; assay: enzyme inhibition (A410); pH 8, 30 minutes
# [8] = target: DP IV; assay: enzyme inhibition (A410); pH 2, 30 minutes
# [9] = target: DPP IV; assay: enzyme inhibition (A410); pH 2, 10 minutes
# [10] = target: DPP IV; assay: enzyme inhibition (A410); pH 8, 30 minutes
# [11] = target: DPP IV; assay: enzyme inhibition (A410); pH 8, 10 minutes
# [12] = target: DPP IV; assay: enzyme inhibition (A410); pH 2, 30 minutes
# [13] = target: -; assay: enzyme inhibition (A410); pH 2
# [14] = target: -; assay: enzyme inhibition (A410); pH 8
# [15] = target: -; assay: enzyme inhibition (A410); pH 12
"IC50 at ten minutes, pH 2 [1]","IC50 at ten minutes, pH 8 [1]",Substance,also measured
2 µM,–,AibAlaValboroPro (peptide),–
–,–,AspProGlyboroLeu,IC50 [2]: 0.234 µM; IC50 [3]: 0.232 µM; IC50 [4]: 0.093 µM; IC50 [5]: 0.108 µM
–,–,ChgAib-EthylGly-boroPro,IC50 [6]: 13 µM; IC50 [7]: 3.2 µM; IC50 [8]: 2.1 µM
–,–,ChgAla-tBugboroPro,IC50 [9]: > 22 µM; IC50 [10]: > 22 µM; IC50 [11]: > 22 µM; IC50 [12]: > 22 µM
1.3 µM,2.5 µM,ChgAlaEtgboroAla (peptide),–
600 nM,802 nM,ChgAlaEtgboroPro (peptide),–
2 µM,30 µM,ChgAlaProboroPro (peptide),"IC50, pH 2 (Tetrapeptide Prodrugs) [1]: 2 mM; IC50, pH 8 (Tetrapeptide Prodrugs) [1]: 30 mM"
190 nM,360 nM,ChgAlaValboroPro (peptide),"IC50, pH 2 (Tetrapeptide Prodrugs) [1]: 190 nM; IC50, pH 8 (Tetrapeptide Prodrugs) [1]: 360 nM"
15 nM,16 nM,ChgAzeEtgboroPro (peptide),–
15 nM,17 nM,ChgDhpEtgboroPro (peptide),–
17 nM,25 nM,ChgHypEtgboroPro (peptide),–
19 nM,14 nM,ChgPipEtgboroPro (peptide),–
180 nM,170 nM,ChgProChgboroAla (peptide),"IC50, pH 2 (Tetrapeptide Prodrugs) [1]: 180 nM; IC50, pH 8 (Tetrapeptide Prodrugs) [1]: 170 nM"
14 nM,14 nM,ChgProChgboroPro (peptide),–
12 nM,14 nM,ChgProEtgboroPro (peptide),–
6.8 µM,8.4 µM,ChgProtBugboroAla (peptide),–
1.5 µM,8 µM,ChgProtBugboroPro (peptide),–
13 nM,16 nM,ChgThz4EtgboroPro (peptide),–
17 nM,17 nM,Cyclohexylglycine-Proline-Ala-boroProline (peptide),"IC50, pH 2 (Tetrapeptide Prodrugs) [1]: 19 nM; IC50, pH 8 (Tetrapeptide Prodrugs) [1]: 15 nM"
70 nM,70 nM,Cyclohexylglycine-Proline-Valine-boroProline (peptide),"IC50, pH 2 (Tetrapeptide Prodrugs) [1]: 65 nM; IC50, pH 8 (Tetrapeptide Prodrugs) [1]: 72 nM"
39 nM,34 nM,"N-Me-Gly-3,4 dehydroproline-ALA-PRO boronic acid (peptide)",–
–,–,Propyl Gly-boro-Pro,IC50 [13]: 0.0025 µM; IC50 [14]: 2.8 µM; IC50 [15]: 0.2 µM
14 nM,18 nM,tBugProAlaboroPro (peptide),–
–,–,tert-Butyl Gly-boro-Pro,IC50 [13]: 0.0034 µM; IC50 [14]: 0.3 µM; IC50 [15]: 0.019 µM
